Test results reported in PMC9449809 (Frontiers in Immunology, 2022).

B1: monoclonal antibody REGN10987 (imdevimab) (antibody, V domains shown)
VH: QVQLVESGGGVVQPGRSLRLSCAASGFTFSNYAMYWVRQAPGKGLEWVAVISYDGSNKYYADSVKGRFTISRDNSKNTLYLQMNSLRTEDTAVYYCASGSDYGDYLLVYWGQGTLVTVSS
VL: QSALTQPASVSGSPGQSITISCTGTSSDVGGYNYVSWYQQHPGKAPKLMIYDVSKRPSGVSNRFSGSKSGNTASLTISGLQSEDEADYYCNSLTSISTWVFGGGTKLTVL
B2: monoclonal antibody REGN10933 (casirivimab) (antibody, V domains shown)
VH: QVQLVESGGGLVKPGGSLRLSCAASGFTFSDYYMSWIRQAPGKGLEWVSYITYSGSTIYYADSVKGRFTISRDNAKSSLYLQMNSLRAEDTAVYYCARDRGTTMVPFDYWGQGTLVTVSS
VL: DIQMTQSPSSLSASVGDRVTITCQASQDITNYLNWYQQKPGKAPKLLIYAASNLETGVPSRFSGSGSGTDFTFTISGLQPEDIATYYCQQYDNLPLTFGGGTKVEIK

Molecular target: SARS-CoV-2 spike protein receptor-binding domain, Wuhan-Hu-1 sequence (SARS-CoV-2, UniProt P0DTC2)
Assay: ELISA
Conditions: both partners purified

Binder | binding result
B1 | binds
B2 | binds
